In patent publication US20180362645A1 (Amgen, published 2018):

T1: human pituitary adenylate cyclase-activating polypeptide type I receptor (human, UniProt P41586 21-468)
T1 construct: whole, on cells; On SH-SY5Y or recombinant CHO cells (cAMP assay), as membranes of hPAC-1 AequoScreen CHO cells (radioligand assay) and on CHOK1/huPac1 whole cells (KinExA); also called human PAC1; hPAC1
T1 sequence (looked up): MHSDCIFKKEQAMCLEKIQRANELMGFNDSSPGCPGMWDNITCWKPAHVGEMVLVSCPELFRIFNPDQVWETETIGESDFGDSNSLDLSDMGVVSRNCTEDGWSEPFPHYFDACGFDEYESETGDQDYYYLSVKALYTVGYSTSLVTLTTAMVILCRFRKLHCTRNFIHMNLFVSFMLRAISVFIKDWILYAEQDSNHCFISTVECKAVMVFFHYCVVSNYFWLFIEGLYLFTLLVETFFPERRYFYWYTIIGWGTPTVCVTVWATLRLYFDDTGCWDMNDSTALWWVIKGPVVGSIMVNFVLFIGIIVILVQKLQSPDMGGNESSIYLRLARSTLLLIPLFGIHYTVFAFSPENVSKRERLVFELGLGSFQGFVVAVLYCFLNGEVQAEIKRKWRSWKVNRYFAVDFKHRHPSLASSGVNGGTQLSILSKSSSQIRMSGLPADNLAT

T2: human VPAC2 (human, UniProt P41587 24-438)
T2 sequence (looked up): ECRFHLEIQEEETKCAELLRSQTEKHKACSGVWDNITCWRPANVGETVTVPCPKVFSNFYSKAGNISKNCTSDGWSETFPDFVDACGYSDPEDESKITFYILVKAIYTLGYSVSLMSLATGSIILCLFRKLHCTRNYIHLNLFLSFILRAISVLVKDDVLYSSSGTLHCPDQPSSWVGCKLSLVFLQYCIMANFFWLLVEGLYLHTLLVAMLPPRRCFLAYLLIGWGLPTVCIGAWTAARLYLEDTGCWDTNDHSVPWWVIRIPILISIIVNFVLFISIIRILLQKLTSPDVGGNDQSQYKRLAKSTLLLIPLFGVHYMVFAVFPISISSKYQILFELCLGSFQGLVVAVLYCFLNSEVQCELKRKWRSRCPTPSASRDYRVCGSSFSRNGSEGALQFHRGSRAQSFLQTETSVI

T3: human VPAC1 (human, UniProt P32241 31-457)
T3 sequence (looked up): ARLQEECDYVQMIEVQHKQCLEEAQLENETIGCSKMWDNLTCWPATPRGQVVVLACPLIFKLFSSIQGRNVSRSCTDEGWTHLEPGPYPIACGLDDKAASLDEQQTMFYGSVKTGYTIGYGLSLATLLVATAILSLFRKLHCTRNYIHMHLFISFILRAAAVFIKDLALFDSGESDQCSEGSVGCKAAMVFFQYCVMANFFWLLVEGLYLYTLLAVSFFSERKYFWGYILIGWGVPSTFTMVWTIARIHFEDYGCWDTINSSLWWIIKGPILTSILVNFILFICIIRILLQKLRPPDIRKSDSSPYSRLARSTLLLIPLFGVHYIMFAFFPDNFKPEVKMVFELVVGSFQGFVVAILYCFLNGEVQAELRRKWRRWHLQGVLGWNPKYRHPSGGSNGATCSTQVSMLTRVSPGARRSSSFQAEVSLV

T4: rat PAC1 (rat, UniProt P32215 20-523)
T4 sequence (looked up): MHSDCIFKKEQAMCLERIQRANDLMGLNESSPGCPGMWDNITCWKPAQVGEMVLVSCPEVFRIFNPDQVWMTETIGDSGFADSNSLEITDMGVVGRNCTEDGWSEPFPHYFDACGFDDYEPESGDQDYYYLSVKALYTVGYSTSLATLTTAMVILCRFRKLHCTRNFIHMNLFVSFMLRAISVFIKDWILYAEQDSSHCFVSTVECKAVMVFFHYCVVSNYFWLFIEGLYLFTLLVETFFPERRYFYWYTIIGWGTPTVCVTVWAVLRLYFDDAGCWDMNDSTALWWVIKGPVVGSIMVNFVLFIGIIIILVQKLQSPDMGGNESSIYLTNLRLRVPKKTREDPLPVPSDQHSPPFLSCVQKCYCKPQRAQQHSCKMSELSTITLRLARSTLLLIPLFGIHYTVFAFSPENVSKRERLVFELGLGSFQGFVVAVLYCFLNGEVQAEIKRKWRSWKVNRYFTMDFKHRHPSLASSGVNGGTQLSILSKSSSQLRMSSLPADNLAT


What was measured:
[1] = target: T1, human pituitary adenylate …; experiment: radioligand competition, hPAC1 CHO membranes; competitor 125I-14B
Description: (§1) The plates were incubated at room temperature for 2 hours with shaking at 60 rpm, and then the contents of each well were filtered over 0.5% polyethyleneimine (PEI)-treated (for at least two hours) GF/C 96-well filter plates. The GF/C filter plates were washed five times with ice-cold 50 mM Tris, pH 7.5 and dried in an oven at 55° C. for 1 hour. The bottoms of the GF/C plates were then sealed. 40 μl Microscint™ 20 was added to each well, the tops of the GF/C plates were sealed with TopSeal™-A (a press-on adhesive sealing film), and the GF/C plates were counted with TopCount NXT (Packard). The data were analyzed using Prizm (GraphPad Software Inc.)

[2] = target: T1, human pituitary adenylate …; experiment: radioligand competition, hPAC1 CHO membranes; competitor 125I-26B
Description: as §1

[3] = target: T1, human pituitary adenylate …; experiment: radioligand competition, hPAC1 CHO membranes; competitor 125I-26A
Description: as §1

[4] = target: T1, human pituitary adenylate …; experiment: radioligand competition, hPAC1 CHO membranes; competitor 125I-01B; 125I-01B as tracer
Description: as §1

[5] = target: T1, human pituitary adenylate …; experiment: radioligand competition, hPAC1 CHO membranes; competitor 125I-28A
Description: as §1

[6] = target: T1, human pituitary adenylate …; experiment: radioligand competition, hPAC1 CHO membranes; competitor 125I-29B
Description: as §1

[7] = target: T1, human pituitary adenylate …; experiment: radioligand competition, hPAC1 CHO membranes; competitor 125I-29A
Description: as §1

[8] = target: T1, human pituitary adenylate …; experiment: radioligand competition, hPAC1 CHO membranes; competitor 125I-39B
Description: as §1

[9] = target: T1, human pituitary adenylate …; experiment: radioligand competition, hPAC1 CHO membranes; competitor 125I-14A
Description: as §1

[10] = target: T1, human pituitary adenylate …; experiment: radioligand competition, hPAC1 CHO membranes; competitor 125I-39A
Description: as §1

[11] = target: T1, human pituitary adenylate …; experiment: KinExA, CHOK1/huPac1 whole cells
Description: Binding of anti-Pac1 antibody with CHOK1/huPac1 cells were tested on KinExA. […] Samples containing anti-Pac1 antibody and whole cells were incubated with rotation at room temperature for 4 hours before 5-minute 220-g centrifugation at 4° C. to separate the whole cells and anti-Pac1 antibody-cell complexes from unbound anti-Pac1 antibody. The supernatants containing free anti-Pac1 antibody were filtered through 0.22 μm filter before loading to the goat-anti-huFc-coated beads on KinExA. […] The binding signal is proportional to the concentration of free anti-Pac1 antibody in solution at each cell density. Equilibrium dissociation constant (KD) was estimated by n-curve analysis in KinExA™ Pro software (Sapidyne Instruments, Inc., Boise, Id.).

[12] = target: T1, human pituitary adenylate …; experiment: radioligand competition, hPAC1 CHO membranes; competitor 125I-01B
Description: as §1

[13] = target: cyno PAC1 (cynomolgus); experiment: cell-based or functional assay
[14] = target: T2, human VPAC2; experiment: cell-based or functional assay
[15] = target: T3, human VPAC1; experiment: cell-based or functional assay
[16] = target: T4, rat PAC1; experiment: cell-based or functional assay
[17] = target: T1, human pituitary adenylate …; experiment: cell-based or functional assay

Ki [1] [nM] | Ki [2] [nM] | Ki [3] [nM] | Ki [4] [nM] | Ki [5] [nM] | Ki [6] [nM] | Ki [7] [nM] | Ki [8] [nM] | Ki [9] [nM] | Ki [10] [nM] | Kd [11] [nM] | Ki [12] [nM] | cyno PAC1 IC50 (cAMP assay) [13] [nM] | hVPAC2 IC50 (cAMP assay) [14] [nM] | hVPAC1 IC50 (cAMP assay) [15] [nM] | rat PAC1 IC50 (cAMP assay) [16] [nM] | hPAC1 IC50 (cAMP assay) [17] [nM] | Binder
7.74 | 6.26 | 2.51 | 4.98 | 2.06 | 2.39 | 4.05 | 4.91 | 4.08 | 2.78 | – | – | – | – | – | – | – | FTDSYSRYRKQMAVKKYLAAVLGKRYKQRVKNK (peptide, UniProt P18509 137-169, looked up, domain: PACAP 6-38) [PACAP 6-38]
0.08 | 0.07 | – | – | – | 0.08 | – | 0.05 | – | – | 0.015 | 0.14 | 0.5 | > 10000 | > 10000 | 50.7 | 0.9 | 29B (antibody, human IgG1, kappa, N297G, "B" suffix: aglycosylated IgG1 variant (N297G); also called LC-11 and HC-40) heavy: not shown light: DIQLTQSPSFLSASVGDRVTITCRASQSIGRSLHWYQQKPGKAPKLLFKYASQSLSGVPSRFSGSGSGTEFTLTISSLQPEDFATYYCHQSSRLPFTFGPGTKVDIKRTVAAPSVFIFPPSDEQLKSGTASVVCLLNNFYPREAKVQWKVDNALQSGNSQESVTEQDSKDSTYSLSSTLTLSKADYEKHKVYACEVTHQGLSSPVTKSFNRGEC
